Source: doi:10.1101/2025.11.16.688685

Legend:
hRNMT WT [1] = target: T1, hRNMT WT (Homo sapiens, UniProt O43148 1-476); experiment: pull-down
hRNMT 1-185 [2] = target: T2, hRNMT 1-185 (Homo sapiens, UniProt O43148 1-185); experiment: pull-down
hRNMT 120-476 [3] = target: T3, hRNMT 120-476 (Homo sapiens, UniProt O43148 120-476); experiment: pull-down
hRNMT WT;RAM 1-90 = hRNMT WT;RAM 1-90 (Homo sapiens;Homo sapiens?, UniProt O43148;Q9BTL3 1-476;1-90, |); experiment: EMSA
hRNMT 120-476 [4] = target: T3, hRNMT 120-476; experiment: EMSA
hRNMT 1-185 [5] = target: T2, hRNMT 1-185; experiment: EMSA
hRNMT WT [6] = target: T1, hRNMT WT; experiment: EMSA

Measured: binding result

T3 sequence (O43148 120-476): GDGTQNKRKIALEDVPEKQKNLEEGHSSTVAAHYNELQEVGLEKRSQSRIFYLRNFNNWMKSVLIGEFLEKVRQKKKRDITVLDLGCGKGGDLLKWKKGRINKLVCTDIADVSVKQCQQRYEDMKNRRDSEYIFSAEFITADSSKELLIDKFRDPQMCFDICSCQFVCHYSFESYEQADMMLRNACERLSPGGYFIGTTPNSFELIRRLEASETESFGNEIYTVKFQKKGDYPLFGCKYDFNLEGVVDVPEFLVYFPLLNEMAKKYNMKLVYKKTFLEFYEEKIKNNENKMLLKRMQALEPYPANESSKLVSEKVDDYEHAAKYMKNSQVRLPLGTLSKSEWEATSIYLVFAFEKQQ
hRNMT WT;RAM 1-90, sequence (O43148 whole entry, chain 1 of 2): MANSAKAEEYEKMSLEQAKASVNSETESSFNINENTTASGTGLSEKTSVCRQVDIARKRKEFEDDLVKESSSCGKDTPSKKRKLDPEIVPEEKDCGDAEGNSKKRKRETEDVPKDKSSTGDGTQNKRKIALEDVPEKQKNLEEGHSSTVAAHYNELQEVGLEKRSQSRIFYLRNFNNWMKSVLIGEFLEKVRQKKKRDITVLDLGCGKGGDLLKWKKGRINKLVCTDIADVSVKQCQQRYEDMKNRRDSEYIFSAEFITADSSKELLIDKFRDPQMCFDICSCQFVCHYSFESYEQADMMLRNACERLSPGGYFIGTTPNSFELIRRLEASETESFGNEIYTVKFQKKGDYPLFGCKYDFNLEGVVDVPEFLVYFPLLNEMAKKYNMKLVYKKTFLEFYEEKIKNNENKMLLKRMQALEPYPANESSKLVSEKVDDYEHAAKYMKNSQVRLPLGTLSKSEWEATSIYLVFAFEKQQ
hRNMT WT;RAM 1-90, sequence (Q9BTL3 1-90, chain 2 of 2): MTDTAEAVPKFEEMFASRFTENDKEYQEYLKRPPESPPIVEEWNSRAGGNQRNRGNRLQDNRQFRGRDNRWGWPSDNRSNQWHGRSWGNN
T1 sequence (O43148 whole entry): as the sequence (O43148 whole entry, chain 1 of 2) above
T2 sequence (O43148 1-185): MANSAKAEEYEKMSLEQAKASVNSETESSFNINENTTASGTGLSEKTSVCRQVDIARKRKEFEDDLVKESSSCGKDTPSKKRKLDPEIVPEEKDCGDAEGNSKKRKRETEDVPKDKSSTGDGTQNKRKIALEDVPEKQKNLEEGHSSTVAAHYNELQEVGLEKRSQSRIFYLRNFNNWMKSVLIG

UGUGGGAGGGGCGGGUGUGGGUGC (structured_RNA) [NRAS rG4]
binds: hRNMT WT [1] | hRNMT 1-185 [2] | hRNMT 120-476 [3]

B1: pGEM RNA (ssRNA)
RNA: GGGCGAAUUGGGCCCGACGUCGCAUGCUCCCGGCCGCCAUGGCGGCCGCGGGAA
binds: hRNMT WT;RAM 1-90 | hRNMT 120-476 [4]

B2: pGEM rG4 RNA (structured_RNA)
RNA: GGGCGAAUUGGGCCCGACGUCGCAUGUGUGGGAGGGGGCGGGUGUGGGUGCGAA
binds: hRNMT WT;RAM 1-90 | hRNMT 120-476 [4] | hRNMT 1-185 [5] | hRNMT WT [6]
